In publication PMC7886630 one finds koff data, which are given here for 1 substance.

For orientation: koff means the first-order rate constant of dissociation.

Test [1] concerns the target soluble recombinant human ACE2 (Gln18-Ser740), His-tagged (human) (UniProt Q9BYF1). Kind of test: AFM single-molecule force spectroscopy.
Test [2] addresses deglycosylated ACE2 treated with PNGase F (human) (UniProt Q9BYF1). Kind of test: AFM single-molecule force spectroscopy.

Take “SARS-CoV-1 spike receptor-binding domain (residues 318-510) with C-terminal Fc tag (Fc fusion; modification not given)”: the figures for the koff in test [1] and in test [2] were 0.57 s⁻¹ and 3.4 s⁻¹, respectively.
